According to publication PMC12502808, “Catalytic His-loop flexibility drives high activity in hyperthermophilic esterase EstE1 while preserving structural stability” (Microbiology Spectrum, 2025):
Residue numbers refer to the chain shown, from its start. Numbers in names are those of the source. One block for each molecule: values may come before it.

What was measured:
[1] = system: CC(=O)Oc1ccc([N+](=O)[O-])cc1; experiment: purified protein; format: biochemical, Pseudomonas sp. ECU1011; details: 100 mM Tris-HCl, 100 mM NaCl, pH 7.5, optimal temperature (45-50°C for WT, 30°C for mutants)
[2] = target: EstE1 wild type (hyperthermophilic esterase); experiment: SEC; Superdex 200 column equilibrated with 50 mM sodium phosphate, 150 mM NaCl, pH 7.0; molecular weight determination of the purified protein
purified protein [3] = substrate: CCCCCC(=O)Oc1ccc([N+](=O)[O-])cc1; experiment: purified protein; format: biochemical, uncultured archaeon; details: 100 mM Tris-HCl, 100 mM NaCl, pH 7.5, optimal temperature 70°C
purified protein [4] = substrate: CC(=O)Oc1ccc([N+](=O)[O-])cc1; experiment: purified protein; format: biochemical, Pseudomonas sp. ECU1011; details: 100 mM Tris-HCl, 100 mM NaCl, pH 7.5, optimal temperature (45-50°C)

Molecule: rPPE (Pseudomonas sp. ECU1011; D287G)
Km [1]: 114 ± 2 µM
kcat [1]: 13 ± 1 s⁻¹
kcat/Km [1]: 110000 ± 10000 M⁻¹ s⁻¹

stoichiometry N [2]: 2
Molecule: EstE1 wild type (hyperthermophilic esterase) (enzyme)

Molecule: rPPE (Pseudomonas sp. ECU1011; D287E)
Km [1]: 6 ± 1 µM
kcat [1]: 2.1 ± 0.1 s⁻¹
kcat/Km [1]: 330000 ± 20000 M⁻¹ s⁻¹

B1: EstE1 (uncultured archaeon) (protein)
chain: MPLDPQIKPILERIRALSIAASPQELRRQVEEQSRLLTAAVQEPIAETRDVHIPVSGGSIRARVYFPKKAAGLPAVLYYHGGGFVFGSIETHDHICRRLSRLSDSVVVSVDYRLAPEYKFPTAVEDAYAALKWVADRADELGVDPDRIAVAGDSAGGNLAAVVSILDRNSGEKLVKKQVLIYPVVNMTGVPTASLVEFGVAETTSLPIELMVWFGRQYLKRPEEAYDFKASPLLADLGGLPPALVVTAEYDPLRDEGELYAYKMKASGSRAVAVRFAGMVHGFVSFYPFVDAGREALDLAAASIRSGLQPS
Km (purified protein [3]): 1520 ± 17 µM
kcat (purified protein [3]): 2900 ± 1 s⁻¹
kcat/Km (purified protein [3]): 1.91e+06 ± 20000 M⁻¹ s⁻¹

B2: EstE1 (uncultured archaeon; G282Q) (protein)
chain: B1 chain with G282Q
Km (purified protein [3]): 745 ± 40 µM
kcat (purified protein [3]): 950 ± 27 s⁻¹
kcat/Km (purified protein [3]): 1.28e+06 ± 30000 M⁻¹ s⁻¹

B3: EstE1 (uncultured archaeon; G282N) (protein)
chain: B1 chain with G282N
Km (purified protein [3]): 1330 ± 79 µM
kcat (purified protein [3]): 1980 ± 84 s⁻¹
kcat/Km (purified protein [3]): 1.49e+06 ± 30000 M⁻¹ s⁻¹

B4: rPPE (Pseudomonas sp. ECU1011) (protein)
chain: GSPGVEQHTKAFLEALEQGGGKPLEQLSPKDARAVLTGAQASVKVDLSGIEVKERTIQANGQSIKLQVVRPANVKGELPVFMFFHGGGWVLGDFPTHQRLIRDLVVGSGAVAVYVDYTPSPESHYPTAINQAYAATQWVAEHGKEIGVDGKRLAVAGNSVGGNMAAVVALKAKEAGTPALRFQLLLWPVTDASFETASYKQFADGHFLTTGMMKWFWDNYTTDAKAREQIYASPLRASSEQLKGLPPALVQTAEFDVLRDEGEAYARKLNAAGVTVTSVRYNGMIHDYGLLNPLSQVPAVKAAMRQAGTELKVHLQ
Km (purified protein [4]): 33 ± 1 µM
kcat (purified protein [4]): 2 ± 0.1 s⁻¹
kcat/Km (purified protein [4]): 60000 ± 10000 M⁻¹ s⁻¹
